System: MS2 coat protein
Assay: apparent KD of MS2 coat protein; designed switch direction (-1 OFF switch, 1 ON switch): -1; higher = weaker reporter binding
Procedure, shortened: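 Three titration conditions were used: no input, 200 uM small-molecule ligand, and an oligonucleotide input. In each, SNAP-549-labelled MS2 coat protein was raised from 0.7 or 1.5 nM, doubling, to 3 µM over designed RNA switches transcribed on Illumina chips by stalled E. coli RNA polymerase. Curve fits of normalised cluster fluorescence gave values whose per-design median over clusters is the apparent KD.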

[1] = input ligand: microRNA oligo, concentration not stated
[2] = Eterna round: R95, input ligand: microRNA oligo, concentration not stated
[3] = Eterna round: R95, input ligand: FMN 200 uM
[4] = Eterna round: R95, input ligand: none

Row | Sequence | apparent KD of MS2 coat protein (input ligand: FMN 200 uM) | apparent KD of MS2 coat protein [1] | apparent KD of MS2 coat protein (input ligand: none) | apparent KD of MS2 coat protein [2] | apparent KD of MS2 coat protein [3] | apparent KD of MS2 coat protein [4]
1 | GCCCGGCCUGUAGGAUAUGGUUCCGUUUCGGUUCCAGAAGGACACGAGGAUACAUGAGGAUCACCCAUGUGCUCGUCACCGGGC [salish99_ExNG1_r04_403] (Eterna round: R96, puzzle: Exclusion NG 1) | 8.67 nM | 8.6 nM | 11.3 nM | – | – | –
2 | GCCCGGCGUGUAGGAUAUGGUUCCGUUUCGGUUCCAGAAGGACAUGAGGAUCACCCAUGUGCCUGUCGUCGGUCGUCACCGGGC [salish99_ExNG1_r04_401] (Eterna round: R96, puzzle: Exclusion NG 1) | 11.1 nM | 9.87 nM | 12.4 nM | – | – | –
3 | GCCGAAAAUGUGAGGAUAUACCUAUGGAAACAUAGGUAGAAGGCACAUGAGGAUCACCCAUGUCCAAUAACGGC [Mat - Exclusion 4 - Eli Mod - D25] (Eterna round: R97, puzzle: Brourd's mod of Exclusion 4) | 664 nM | – | 287 nM | – | – | –
4 | GCCGAAAGUGUGAGGAUAUACCUAUGGAAACAUAGGUAGAAGGCACAUGAGGAUCACCCAUGUGUCCAAACGGC [Mat - Exclusion 4 - Eli Mod - D23] (Eterna round: R97, puzzle: Brourd's mod of Exclusion 4) | 41.5 nM | – | 16.5 nM | – | – | –
5 | GCCGAAUAAGUGAGGAUAUACCUAUGGAUACAUAGGUAGAAGGCACAUGAGGAUCACCCAUGUACCUCAACGGC [JL-BMX4-4.16 Eli mod] (Eterna round: R97, puzzle: Brourd's mod of Exclusion 4) | 34.5 nM | – | 14.8 nM | – | – | –
6 | GCCGAUUAAGUGAGGAUAUACCUAUGGAUACAUAGGUAGAAGGCACAUGAGGAUCACCCAUGUUCCUCAACGGC [Fiskers BMX 4 - 6] (puzzle: Brourd's mod of Exclusion 4) | – | – | – | 15 nM | – | –
7 | GCCGAUUAAGUGAGGAUAUACCUAUGGAUACAUAGGUAGAAGGUACAUGAGGAUCACCCAUGUUCCUCAUCGGC [Fiskers BMX 4 - 10] (puzzle: Brourd's mod of Exclusion 4) | – | – | – | 9.97 nM | – | –
8 | GCCGUAAAUGUGAGGAUAUACCUAUGGAUACAUAGGUAGAAGGCACAUGAGGAUCACCCAUGUCCUUAAUCGGC [Eli BMX r4m3] (Eterna round: R97, puzzle: Brourd's mod of Exclusion 4) | 730 nM | – | 409 nM | – | – | –
9 | GCCGUAAGUGUGAGGAUAUACCUAUGGAAACAUAGGUAGAAGGCACAUGAGGAUCACCCAUGUUCUCAAUCGGC [Mat - Exclusion 4 - Eli Mod - D5] (Eterna round: R97, puzzle: Brourd's mod of Exclusion 4) | 458 nM | – | 245 nM | – | – | –
10 | GCCGUACAUGAGGAUCACCCAUGUCAGGAUAUUUAGCACUCGGAGUUCCCGAGAGGUCAAAGAAGGGACAUUGC [EX1 C.17] (Eterna round: R97, puzzle: Exclusion 1) | 21.6 nM | – | 17.4 nM | – | – | –
11 | GCCGUCAAUGUGAGGAUAUGCCUAUGGAUACGUAGGCAGAAGGCACAUGAGGAUCACCCAUGUCCAAAGACGGC [JL-BMX4-4.31 Eli mod] (Eterna round: R97, puzzle: Brourd's mod of Exclusion 4) | 2170 nM | – | 200 nM | – | – | –
12 | GCCGUUAAAGGAUAUACAUGAGGAUCACCCAUGUCGGUAUAAAAUUUACCGCCUCCCUGUAGAAGGUUAAGGCA [Xebiatorer] (puzzle: Exclusion 3) | – | – | – | 16.1 nM | – | –
13 | GCCGUUAAGGUAGGAUAUGCUCGGUCUGUUCGUGCAGAAGGGCUGGUCGGCGACUUGAGGAUCACCCAAGUGGUCUUAUAGAAA [Mutated MS2 EX1.19] (Eterna round: R96, puzzle: Exclusion NG 1) | 99.6 nM | 52.3 nM | 54.8 nM | – | – | –
14 | GCCUAACAUGAGGAUCACCCAUGUCAGGAUAUCCAUAAACACCGGGAUGUACUGGACGGGAGAAGGGACAGGGC [Escelazari] (Eterna round: R97, puzzle: Exclusion 1) | 53.5 nM | – | 51.4 nM | – | – | –
15 | GCCUCACAUGAGGAUCACCCAUGUCAGGAUAUCUCGUGCGCAGUAAUUAUCUGGCUAAAGAGAAGGGACAUUAA [Bedile] (puzzle: Exclusion 1) | – | – | – | 46.6 nM | – | –
16 | GCCUGAGCAGGAUAUUCAAUAAUUCACAUGAGGAUCACCCAUGUCCAGCGAAAGCUAGGAGGAGAAGGGCUCAGGC [Mat - Exclusion 5 - Eli mod - D86] (puzzle: Exclusion 5) | – | – | – | 16.5 nM | 18.3 nM | 17.8 nM
17 | GCCUUAUCCGUCAGGAUAUACAGCCGCUCCCUGUUGUAGAAGGGACAUGAGGAUCACCCAUGUACGUACCACUG [alecazam7] (Eterna round: R97, puzzle: Brourd's mod of Exclusion 4) | 28.7 nM | – | 22.6 nM | – | – | –
18 | GCGAAAGCAAACAAGUGAAACAUGAGGAUCACCCAUGUCCUCAUUUGCUCGUCUUAUAAGCUAUGCGAAAGCAUAGC [Sensor 3, v1 - 6] (puzzle: Sensor v3, turn-off variant 1) | – | – | – | 269 nM | 38 nM | 41.6 nM
19 | GCGCACCUACCAAAAGGUAGGUCAACAUGAGGAUCACCCAUGUAGGAUAUCGAUUGCUUUGCAGUCGAGAAGGGCAUGAUGCGC [JL ENG3 3.80 Mod 14] (Eterna round: R96, puzzle: Exclusion NG 3) | 59.1 nM | 36.6 nM | 44.2 nM | – | – | –
20 | GCGCCAUCGUGAGAUGGCGUAAUUACAUGAGGAUCACCCAUGUAGGAUAUCGAUUGCUUUGCAGUCGAGAAGGGCAUGUUUUGU [JL ENG3 3.85] (Eterna round: R96, puzzle: Exclusion NG 3) | 33.3 nM | 26.4 nM | 31.5 nM | – | – | –
21 | GCGCGAAGCAAGGAUAUCCCAGGGAGCUCCCUGGGAGAAGGUGCCACAUGAGGAUCACCCAUGUGGUGAUCCUG [eternacac ex6r4 sub16] (Eterna round: R97, puzzle: Exclusion 6) | 25.6 nM | – | 17.7 nM | – | – | –
22 | GCGCUGCGAGGAUAUACAUGAGGAUCACCCAUGUGUCGGCAGCCAUGGUAGUACAAAUGUAGAAGGCGCGUAAA [EX3 #51] (Eterna round: R97, puzzle: Exclusion 3) | 202 nM | – | 165 nM | – | – | –
23 | GCGGACUAGUACGUGAGUACUGAGACAUGAGGAUCACCCAUGUAGGAUAUCGAUUCGAAACGAAUCGAGAAGGGCAUAGUCCGC [JL denovo 10] (Eterna round: R96, puzzle: Exclusion NG 3) | 19.7 nM | 18.9 nM | 21.2 nM | – | – | –
24 | GCGGACUGGAUCGUGAGAUCCGAGACAUGAGGAUCACCCAUGUAGGAUAUCGAUUGCUUUGCAGUCGAGAAGGGCGUGGUCCGC [JL denovo 16] (Eterna round: R96, puzzle: Exclusion NG 3) | 54.6 nM | 44.9 nM | 59.3 nM | – | – | –
25 | GCGGAGUGAGGAUAUAGAACUUAAGGUACCAAUUAGGUACCCUAGAAGGCACAUGAGGAUCACCCAUGUACCGC [Eli x4 4.01] (Eterna round: R97, puzzle: Exclusion 4) | 26.5 nM | – | 28.6 nM | – | – | –
26 | GCGGGAUAGCAAGGAUAUCCCGAGUCGCAAGGAAACAUCCACAUGAGGAUCACCCAUGUGGCUCUGGAGAAGGUGCGACGCAAA [Onveceanti] (Eterna round: R96, puzzle: Exclusion NG 2) | 10.3 nM | 9.8 nM | 13.4 nM | – | – | –
27 | GCGGGCUUUUUGCUCGUUUACAUGAGGAUCACCCAUGUGUCUUCGCGCCCGGGCCCGGGCGGGCCCGGGCCCGGGCG [-52.3, -76.4, A 8%] (Eterna round: R97, puzzle: Sensor, turn-off variant 1) | 36.1 nM | – | 41.5 nM | – | – | –
28 | GCGGGUUUUUUGUUCGUUUACAUGAGGAUCACCCAUGUGUCUUCGCGUUCGGGUUCGGGCGGGCUUGGGCUUGGGCG [-26.2, -50.6, A 8%] (Eterna round: R97, puzzle: Sensor, turn-off variant 1) | 47.4 nM | – | 47.8 nM | – | – | –
29 | GCGUGACAUGAGGAUCACCCAUGUGAGGAUAUCUGGACACUCUUUAUUUUAGAUGUCCAGAGAAGGCACAUGCU [Ex1-3: 5Z] (puzzle: Exclusion 1) | – | – | – | 220 nM | – | –
30 | GCGUGGGCCGCAGGAUAUGAGGCCGUGGGUUCACCCAAACACACAUGAGGAUCACCCAUGUGUCAUCAGAAGGGCGAGCCUACU [Sozasora] (Eterna round: R96, puzzle: Exclusion NG 2) | 18.9 nM | 17.5 nM | 21.4 nM | – | – | –

Source: the supplement of paper PMC9170038
